B1: DVD2-Ig: DVD-Ig as DVD1-Ig but with linkers ADAAP (light chain) and AKTTPP (heavy chain) (antibody)
VH: MQLSGLTSEDSAMYFCVRFPTGNDYYAMDYWGQGTSVTVSSAKTTPPQIQLVQSGPELKKPGETVKISCKASGYTFRNYGMNWVKQAPGKDLKRMAWINTYTGESTYADDFKGRFAFSLETSASTAYLQINNLKNEDTATYFCARGIYYYGSSYAMDYWGQGTSVTVSS
VL: PVEADDAATYYCQQNNEDPFTFGSGTKLEIKRADAAPNIQMTQTTSSLSASLGDRVTISCRASQDISNCLNWYQQKPDGTVKLLIYYTSRLHSGVPSRFSGSGSGTDYSLTISNLEQEDIATYFCQQGKTLPYAFGGGTKLEINR
B2: DVD1-Ig: DVD-Ig binding hIL-1α and hIL-1β; VH/VL of 13F5.G5 fused directly to N-terminus of 3D12.E3 VH/VL, no linker (antibody)
VH: MQLSGLTSEDSAMYFCVRFPTGNDYYAMDYWGQGTSVTVSSQIQLVQSGPELKKPGETVKISCKASGYTFRNYGMNWVKQAPGKDLKRMAWINTYTGESTYADDFKGRFAFSLETSASTAYLQINNLKNEDTATYFCARGIYYYGSSYAMDYWGQGTSVTVSS
VL: PVEADDAATYYCQQNNEDPFTFGSGTKLEIKRNIQMTQTTSSLSASLGDRVTISCRASQDISNCLNWYQQKPDGTVKLLIYYTSRLHSGVPSRFSGSGSGTDYSLTISNLEQEDIATYFCQQGKTLPYAFGGGTKLEINRR

How the values were obtained:
[1] = Size exclusion chromatography (SEC): physical homogeneity and in vitro stability; type: physicochemical; conditions: for Ab (intact antibody) / Agg (aggregates) / Frgm (fragments): 0.2-0.4 mg/ml in PBS; for Ab (intact antibody) / Agg (aggregates) / Frgm (fragments) / aggregation and fragmentation in stability analysis: SEC; for aggregation and fragmentation in stability analysis: PBS, freeze-thaw, 4, 25, 40° C. for 4 and 8 weeks; for SEC profile of purified protein (physical homogeneity): purified protein in PBS
Protocol: For measuring molecular weight (MW) of light and heavy chains of DVD-Ig binding protein, 10 μL of DVD-Ig molecule (0.8 μg/μL) was reduced by 1.0 M DTT solution (5 μL). A PLRP-S, 8μ, 4000 A, and 1×150 mm protein column (Michrom BioResource, Auburn, Mass.) was used to separate heavy and light chains of DVD-Ig molecule. Agilent HP1100 Capillary HPLC (Agilent Technologies Inc., Pala Alto, Calif.) was used with the mass spectrometer QSTAR (Applied Biosystems, Foster City, Calif.). The valco valve was set at 10 minutes to switch the flow from waste to MS for desalting sample. Buffer A was 0.02% TFA, 0.08% FA, 0.1% ACN and 99.8% HPLC-H2O. Buffer B contained 0.02% TFA, 0.08% FA, 0.1% HPLC-H2O, and 99.8% ACN. The HPLC flow rate was 50 μL/minute and the sample injection volume was […]. The temperature of the column oven was set at 60° C., and separation gradient was: 5% B for 5 minutes; 5% B to 65% B for 35 minutes; 65% B to 95% B for another 5 minutes, and 95% B to 5% B for 5 minutes. TOFMS scan was from 800 to 2500 amu, and cycles were 3600. To determine the MW of full length DVD-Ig binding protein, a Protein MicroTrap cartridge (Michrom BioResource, Auburn, Mass.) was used for desalting the sample. The HPLC gradient was: 5% B for 5 minutes; 5% B to 95% B in 1 minute; and from 95% B to 5% B in another 4 minutes. The QSTAR TOFMS scan was from 2000 to 3500 amu, and cycles were 899. All MS raw data were analyzed using the Analyst QS software (Applied Biosystems). For SEC analysis of the DVD-Ig binding protein, purified DVD-Ig binding protein and chimeric Abs, in PBS, were applied on a Superose 6 10/300 G2, 300×10 mm column (Amersham Bioscience, Piscataway, N.J.). An HPLC instrument, Model 10A (Shimadzu, Columbia, Md.) was used for SEC. All proteins were determined using UV detection at 280 nm and 214 nm. The elution was isocratic at a flow rate of 0.5 mL/minute. For stability study, samples in the concentration range of 0.2-0.4 mg/ml in PBS underwent 3 freeze-thaw cycles between −80° C. and 25° C., or were incubated at 4° C., 25° C., or 40° C., for 4 weeks and 8 weeks, followed by SEC analysis.
In order to determine the precise molecular weight of the DVD-Ig binding proteins, mass spectrometry was employed. […] To further study the physical properties of DVD-Ig binding protein in solution, size exclusion chromatography (SEC) was used to analyze each protein.
The physical stability of DVD-Ig was tested as follows. Purified antibodies in the concentration range of 0.2-0.4 mg/ml in PBS underwent 3 freeze-thaw cycles between −80° C. and 25° C., or were incubated at 4° C., 25° C., or 40° C., for 4 weeks and 8 weeks, followed by analysis using size exclusion chromatography (SEC) analysis (see Table 12).

[2] = system: IL-1α, IL-1β, or both IL-1α and IL-1β; assay: Functional homogeneity: antigen binding in solution by SEC; conditions: 120-minute incubation at 37° C. with antigen in equal molar ratio
Protocol: Because DVD2-Ig binding protein was purified by Protein A chromatography instead of target-specific affinity chromatography, any potential misfolded and/or mismatched VL/VH domains, if present, can be assessed by binding studies against the two different antigens. Such binding analysis was conduced by size exclusion liquid chromatography (SEC). DVD2-Ig binding protein, alone or after a 120-minute incubation period at 37° C. with IL-1α, IL-1β, or both IL-1α and IL-1β, in equal molar ratio, were applied to the column. Each of the antigens was also run alone as controls. […] In the presence of both IL-1α and IL-1β, there was a further and complete shift of the DVD2-Ig binding protein signal, indicating all DVD2-Ig molecules were able to bind both antigens in a uniform fashion.

[3] = 3xFreeze-Thaw between −80° C. and 25° C.

| Molecule | Ab (intact antibody) [1, 3] | Agg (aggregates) [1, 3] | Frgm (fragments) [1, 3] | Ab (intact antibody) ([1]; 4° C. @ 4 Wks) | Agg (aggregates) ([1]; 4° C. @ 4 Wks) | Frgm (fragments) ([1]; 4° C. @ 4 Wks) | Ab (intact antibody) ([1]; 4° C. @ 8 Wks) | Agg (aggregates) ([1]; 4° C. @ 8 Wks) | Frgm (fragments) ([1]; 4° C. @ 8 Wks) | Ab (intact antibody) ([1]; 25° C. @ 4 Wks) | Agg (aggregates) ([1]; 25° C. @ 4 Wks) | Frgm (fragments) ([1]; 25° C. @ 4 Wks) | Ab (intact antibody) ([1]; 25° C. @ 8 Wks) | Agg (aggregates) ([1]; 25° C. @ 8 Wks) | Frgm (fragments) ([1]; 25° C. @ 8 Wks) | Ab (intact antibody) ([1]; 40° C. @ 4 Wks) | Agg (aggregates) ([1]; 40° C. @ 4 Wks) | Frgm (fragments) ([1]; 40° C. @ 4 Wks) | Ab (intact antibody) ([1]; 40° C. @ 8 Wks) | Agg (aggregates) ([1]; 40° C. @ 8 Wks) | also measured |
| --- | --- | --- | --- | --- | --- | --- | --- | --- | --- | --- | --- | --- | --- | --- | --- | --- | --- | --- | --- | --- | --- |
| B1 | 100.0 percentage | 0.0 percentage | 0.0 percentage | 100.0 percentage | 0.0 percentage | 0.0 percentage | 100.0 percentage | 0.0 percentage | 0.0 percentage | 100.0 percentage | 0.0 percentage | 0.0 percentage | 100.0 percentage | 0.0 percentage | 0.0 percentage | 100.0 percentage | 0.0 percentage | 0.0 percentage | 100.0 percentage | 0.0 percentage | Frgm (fragments) ([1]; 40° C. @ 8 Wks): 0.0 percentage; aggregation and fragmentation in stability analysis [1]: Neither aggregation nor fragmentation was detected; maintained as intact monomeric molecule ([1]; all conditions tested (freeze-thaw; 4, 25, 40° C. for 4 and 8 weeks)): 100%; SEC profile of purified protein (physical homogeneity) [1]: a single peak; shift of the DVD2-Ig binding protein SEC signal in complex with antigen [2]: 100% |
| B2 | 53.50 percentage | 46.50 percentage | 0.00 percentage | 56.63 percentage | 42.43 percentage | 0.94 percentage | 56.91 percentage | 38.18 percentage | 4.91 percentage | 54.34 percentage | 45.66 percentage | 0.00 percentage | 67.39 percentage | 24.42 percentage | 8.19 percentage | 59.42 percentage | 36.70 percentage | 3.88 percentage | 67.16 percentage | 20.55 percentage | Frgm (fragments) ([1]; 40° C. @ 8 Wks): 12.29 percentage; aggregation and fragmentation in stability analysis [1]: showed aggregations in PBS under different conditions; SEC profile of purified protein (physical homogeneity) [1]: a major peak as well as a shoulder peak on the right |

From patent publication US8889130B2, “Treatment of osteoarthritis and pain” (Abbvie Inc., priority 2011, dated 2014)
